# Molecular target: CD22 on WSU-DLCL2 cells (WSU-DLCL2/CD22^WT; absent from the CRISPR-edited WSU-DLCL2/CD22^KO line) (human) (UniProt P20273)
# Test: cell-based or functional assay
substance,measurement,value
REGN5837 (bispecific antibody),% CD22^KO Survival; ratio CD22^KO:CD22^WT 20:80; 5 pM R1979 +0.46 nM R5837,29.9%
same,% CD22^KO Survival; ratio CD22^KO:CD22^WT 20:80; 5 pM R1979 +2.8 nM R5837,25.2%
same,% CD22^KO Survival; ratio CD22^KO:CD22^WT 20:80; 5 pM R1979 +16.7 nM R5837,20.9%
same,% CD22^KO Survival; ratio CD22^KO:CD22^WT 40:60; 5 pM R1979 +0.46 nM R5837,31.9%
same,% CD22^KO Survival; ratio CD22^KO:CD22^WT 40:60; 5 pM R1979 +2.8 nM R5837,24.1%
same,% CD22^KO Survival; ratio CD22^KO:CD22^WT 40:60; 5 pM R1979 +16.7 nM R5837,19.9%
same,% CD22^KO Survival; ratio CD22^KO:CD22^WT 60:40; 5 pM R1979 +0.46 nM R5837,33.9%
same,% CD22^KO Survival; ratio CD22^KO:CD22^WT 60:40; 5 pM R1979 +2.8 nM R5837,28.2%
same,% CD22^KO Survival; ratio CD22^KO:CD22^WT 60:40; 5 pM R1979 +16.7 nM R5837,19.1%
same,% CD22^KO Survival; ratio CD22^KO:CD22^WT 80:20; 5 pM R1979 +0.46 nM R5837,37.2%
same,% CD22^KO Survival; ratio CD22^KO:CD22^WT 80:20; 5 pM R1979 +2.8 nM R5837,28.8%
same,% CD22^KO Survival; ratio CD22^KO:CD22^WT 80:20; 5 pM R1979 +16.7 nM R5837,26.9%
same,% CD22^KO Survival; ratio CD22^KO:CD22^WT 100:0; 5 pM R1979 +0.46 nM R5837,60.1%
same,% CD22^KO Survival; ratio CD22^KO:CD22^WT 100:0; 5 pM R1979 +2.8 nM R5837,56%
same,% CD22^KO Survival; ratio CD22^KO:CD22^WT 100:0; 5 pM R1979 +16.7 nM R5837,45.4%
same,% CD22^WT Survival; ratio CD22^KO:CD22^WT 0:100; 5 pM R1979 +0.46 nM R5837,28.5%
same,% CD22^WT Survival; ratio CD22^KO:CD22^WT 0:100; 5 pM R1979 +2.8 nM R5837,22.4%
same,% CD22^WT Survival; ratio CD22^KO:CD22^WT 0:100; 5 pM R1979 +16.7 nM R5837,12.6%
same,% CD22^WT Survival; ratio CD22^KO:CD22^WT 20:80; 5 pM R1979 +0.46 nM R5837,19.3%
same,% CD22^WT Survival; ratio CD22^KO:CD22^WT 20:80; 5 pM R1979 +2.8 nM R5837,16.4%
same,% CD22^WT Survival; ratio CD22^KO:CD22^WT 20:80; 5 pM R1979 +16.7 nM R5837,11.2%
same,% CD22^WT Survival; ratio CD22^KO:CD22^WT 40:60; 5 pM R1979 +0.46 nM R5837,20.1%
same,% CD22^WT Survival; ratio CD22^KO:CD22^WT 40:60; 5 pM R1979 +2.8 nM R5837,12.8%
same,% CD22^WT Survival; ratio CD22^KO:CD22^WT 40:60; 5 pM R1979 +16.7 nM R5837,9.45%
same,% CD22^WT Survival; ratio CD22^KO:CD22^WT 60:40; 5 pM R1979 +0.46 nM R5837,19.1%
same,% CD22^WT Survival; ratio CD22^KO:CD22^WT 60:40; 5 pM R1979 +2.8 nM R5837,12.4%
same,% CD22^WT Survival; ratio CD22^KO:CD22^WT 60:40; 5 pM R1979 +16.7 nM R5837,8.6%
same,% CD22^WT Survival; ratio CD22^KO:CD22^WT 80:20; 5 pM R1979 +0.46 nM R5837,20.6%
same,% CD22^WT Survival; ratio CD22^KO:CD22^WT 80:20; 5 pM R1979 +2.8 nM R5837,13.1%
same,% CD22^WT Survival; ratio CD22^KO:CD22^WT 80:20; 5 pM R1979 +16.7 nM R5837,7.95%
same,CD4+ T cell activation (MFI of CD25); ratio CD22^KO:CD22^WT 0:100; 5 pM R1979 +0.46 nM R5837,13400 MFI
same,CD4+ T cell activation (MFI of CD25); ratio CD22^KO:CD22^WT 0:100; 5 pM R1979 +2.8 nM R5837,14800 MFI
same,CD4+ T cell activation (MFI of CD25); ratio CD22^KO:CD22^WT 0:100; 5 pM R1979 +16.7 nM R5837,17700 MFI
same,CD4+ T cell activation (MFI of CD25); ratio CD22^KO:CD22^WT 20:80; 5 pM R1979 +0.46 nM R5837,11200 MFI
same,CD4+ T cell activation (MFI of CD25); ratio CD22^KO:CD22^WT 20:80; 5 pM R1979 +2.8 nM R5837,14400 MFI
same,CD4+ T cell activation (MFI of CD25); ratio CD22^KO:CD22^WT 20:80; 5 pM R1979 +16.7 nM R5837,15300 MFI
same,CD4+ T cell activation (MFI of CD25); ratio CD22^KO:CD22^WT 40:60; 5 pM R1979 +0.46 nM R5837,11800 MFI
same,CD4+ T cell activation (MFI of CD25); ratio CD22^KO:CD22^WT 40:60; 5 pM R1979 +2.8 nM R5837,13200 MFI
same,CD4+ T cell activation (MFI of CD25); ratio CD22^KO:CD22^WT 40:60; 5 pM R1979 +16.7 nM R5837,13600 MFI
same,CD4+ T cell activation (MFI of CD25); ratio CD22^KO:CD22^WT 60:40; 5 pM R1979 +0.46 nM R5837,8520 MFI
same,CD4+ T cell activation (MFI of CD25); ratio CD22^KO:CD22^WT 60:40; 5 pM R1979 +2.8 nM R5837,10900 MFI
same,CD4+ T cell activation (MFI of CD25); ratio CD22^KO:CD22^WT 60:40; 5 pM R1979 +16.7 nM R5837,12000 MFI
same,CD4+ T cell activation (MFI of CD25); ratio CD22^KO:CD22^WT 80:20; 5 pM R1979 +0.46 nM R5837,7520 MFI
same,CD4+ T cell activation (MFI of CD25); ratio CD22^KO:CD22^WT 80:20; 5 pM R1979 +2.8 nM R5837,8280 MFI
same,CD4+ T cell activation (MFI of CD25); ratio CD22^KO:CD22^WT 80:20; 5 pM R1979 +16.7 nM R5837,9850 MFI
same,CD4+ T cell activation (MFI of CD25); ratio CD22^KO:CD22^WT 100:0; 5 pM R1979 +0.46 nM R5837,4280 MFI
same,CD4+ T cell activation (MFI of CD25); ratio CD22^KO:CD22^WT 100:0; 5 pM R1979 +2.8 nM R5837,4060 MFI
same,CD4+ T cell activation (MFI of CD25); ratio CD22^KO:CD22^WT 100:0; 5 pM R1979 +16.7 nM R5837,3150 MFI
same,CD8+ T cell activation (MFI of CD25); ratio CD22^KO:CD22^WT 0:100; 5 pM R1979 +0.46 nM R5837,7920 MFI
same,CD8+ T cell activation (MFI of CD25); ratio CD22^KO:CD22^WT 0:100; 5 pM R1979 +2.8 nM R5837,9030 MFI
same,CD8+ T cell activation (MFI of CD25); ratio CD22^KO:CD22^WT 0:100; 5 pM R1979 +16.7 nM R5837,9880 MFI
same,CD8+ T cell activation (MFI of CD25); ratio CD22^KO:CD22^WT 20:80; 5 pM R1979 +0.46 nM R5837,6310 MFI
same,CD8+ T cell activation (MFI of CD25); ratio CD22^KO:CD22^WT 20:80; 5 pM R1979 +2.8 nM R5837,8410 MFI
same,CD8+ T cell activation (MFI of CD25); ratio CD22^KO:CD22^WT 20:80; 5 pM R1979 +16.7 nM R5837,8660 MFI
same,CD8+ T cell activation (MFI of CD25); ratio CD22^KO:CD22^WT 40:60; 5 pM R1979 +0.46 nM R5837,6140 MFI
same,CD8+ T cell activation (MFI of CD25); ratio CD22^KO:CD22^WT 40:60; 5 pM R1979 +2.8 nM R5837,7920 MFI
same,CD8+ T cell activation (MFI of CD25); ratio CD22^KO:CD22^WT 40:60; 5 pM R1979 +16.7 nM R5837,7880 MFI
same,CD8+ T cell activation (MFI of CD25); ratio CD22^KO:CD22^WT 60:40; 5 pM R1979 +0.46 nM R5837,4800 MFI
same,CD8+ T cell activation (MFI of CD25); ratio CD22^KO:CD22^WT 60:40; 5 pM R1979 +2.8 nM R5837,6620 MFI
same,CD8+ T cell activation (MFI of CD25); ratio CD22^KO:CD22^WT 60:40; 5 pM R1979 +16.7 nM R5837,6670 MFI
same,CD8+ T cell activation (MFI of CD25); ratio CD22^KO:CD22^WT 80:20; 5 pM R1979 +0.46 nM R5837,4250 MFI
same,CD8+ T cell activation (MFI of CD25); ratio CD22^KO:CD22^WT 80:20; 5 pM R1979 +2.8 nM R5837,4890 MFI
same,CD8+ T cell activation (MFI of CD25); ratio CD22^KO:CD22^WT 80:20; 5 pM R1979 +16.7 nM R5837,4970 MFI
same,CD8+ T cell activation (MFI of CD25); ratio CD22^KO:CD22^WT 100:0; 5 pM R1979 +0.46 nM R5837,3000 MFI
same,CD8+ T cell activation (MFI of CD25); ratio CD22^KO:CD22^WT 100:0; 5 pM R1979 +2.8 nM R5837,2510 MFI
same,CD8+ T cell activation (MFI of CD25); ratio CD22^KO:CD22^WT 100:0; 5 pM R1979 +16.7 nM R5837,2160 MFI

# From patent publication US20230357446A1
